The record followed here is PMC10036606.

The assay has as its target CD58 extracellular domain (human) (UniProt P19256).
Chain of UniProt P19256 (P19256 29-215): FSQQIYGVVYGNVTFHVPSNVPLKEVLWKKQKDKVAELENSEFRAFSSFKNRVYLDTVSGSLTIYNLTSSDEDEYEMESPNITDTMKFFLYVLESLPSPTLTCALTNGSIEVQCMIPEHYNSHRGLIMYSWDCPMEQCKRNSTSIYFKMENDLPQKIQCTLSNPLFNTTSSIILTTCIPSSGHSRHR

Substance “CD2 (from UniProt P06729 25-351) (receptor)” yielded a glycocalyx exclusion on the SLB2 (reduction in fluorescence, contact tightness) in regions of CD58 accumulation under J8-GECI cells, against 20% in regions of ICAM-1 accumulation of 45%.
